Source: PMC7643160, “An ambruticin-sensing complex modulates Myxococcus xanthus development and mediates myxobacterial interspecies communication” (Nature Communications, 2020)

T1: AskC (hybrid histidine kinase, MXAN_6734) (Myxococcus xanthus, UniProt Q1CXM2)
T1 construct: C-terminally His6-tagged AskC
T1 sequence (Q1CXM2 1-671): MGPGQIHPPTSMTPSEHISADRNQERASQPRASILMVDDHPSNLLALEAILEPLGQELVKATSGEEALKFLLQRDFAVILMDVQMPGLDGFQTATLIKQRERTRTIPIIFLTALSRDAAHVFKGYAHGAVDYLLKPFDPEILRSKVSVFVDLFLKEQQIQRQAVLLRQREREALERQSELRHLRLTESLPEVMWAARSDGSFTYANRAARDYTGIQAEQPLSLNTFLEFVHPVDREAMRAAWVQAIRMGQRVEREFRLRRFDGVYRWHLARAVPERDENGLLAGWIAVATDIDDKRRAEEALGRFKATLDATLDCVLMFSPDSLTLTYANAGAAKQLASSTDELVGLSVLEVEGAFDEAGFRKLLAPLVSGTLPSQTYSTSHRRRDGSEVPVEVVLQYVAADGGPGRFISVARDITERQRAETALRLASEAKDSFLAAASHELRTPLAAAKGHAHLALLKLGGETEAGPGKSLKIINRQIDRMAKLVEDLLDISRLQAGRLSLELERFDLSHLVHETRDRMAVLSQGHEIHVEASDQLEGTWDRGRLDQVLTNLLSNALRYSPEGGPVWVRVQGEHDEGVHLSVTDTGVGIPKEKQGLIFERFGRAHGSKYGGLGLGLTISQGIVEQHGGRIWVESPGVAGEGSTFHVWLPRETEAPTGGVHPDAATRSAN


How the values were obtained:
[1] = target: AskA (ambruticin sensor kinase A, MXAN_0712), hybrid histidine kinase (Myxococcus xanthus); test: MST + SPR; average of the KD values from MST and from SPR (mean KD of Table 1)
Sequence of AskA (ambruticin sensor kinase A, MXAN_0712), hybrid histidine kinase (Myxococcus xanthus) (main, as listed by the source): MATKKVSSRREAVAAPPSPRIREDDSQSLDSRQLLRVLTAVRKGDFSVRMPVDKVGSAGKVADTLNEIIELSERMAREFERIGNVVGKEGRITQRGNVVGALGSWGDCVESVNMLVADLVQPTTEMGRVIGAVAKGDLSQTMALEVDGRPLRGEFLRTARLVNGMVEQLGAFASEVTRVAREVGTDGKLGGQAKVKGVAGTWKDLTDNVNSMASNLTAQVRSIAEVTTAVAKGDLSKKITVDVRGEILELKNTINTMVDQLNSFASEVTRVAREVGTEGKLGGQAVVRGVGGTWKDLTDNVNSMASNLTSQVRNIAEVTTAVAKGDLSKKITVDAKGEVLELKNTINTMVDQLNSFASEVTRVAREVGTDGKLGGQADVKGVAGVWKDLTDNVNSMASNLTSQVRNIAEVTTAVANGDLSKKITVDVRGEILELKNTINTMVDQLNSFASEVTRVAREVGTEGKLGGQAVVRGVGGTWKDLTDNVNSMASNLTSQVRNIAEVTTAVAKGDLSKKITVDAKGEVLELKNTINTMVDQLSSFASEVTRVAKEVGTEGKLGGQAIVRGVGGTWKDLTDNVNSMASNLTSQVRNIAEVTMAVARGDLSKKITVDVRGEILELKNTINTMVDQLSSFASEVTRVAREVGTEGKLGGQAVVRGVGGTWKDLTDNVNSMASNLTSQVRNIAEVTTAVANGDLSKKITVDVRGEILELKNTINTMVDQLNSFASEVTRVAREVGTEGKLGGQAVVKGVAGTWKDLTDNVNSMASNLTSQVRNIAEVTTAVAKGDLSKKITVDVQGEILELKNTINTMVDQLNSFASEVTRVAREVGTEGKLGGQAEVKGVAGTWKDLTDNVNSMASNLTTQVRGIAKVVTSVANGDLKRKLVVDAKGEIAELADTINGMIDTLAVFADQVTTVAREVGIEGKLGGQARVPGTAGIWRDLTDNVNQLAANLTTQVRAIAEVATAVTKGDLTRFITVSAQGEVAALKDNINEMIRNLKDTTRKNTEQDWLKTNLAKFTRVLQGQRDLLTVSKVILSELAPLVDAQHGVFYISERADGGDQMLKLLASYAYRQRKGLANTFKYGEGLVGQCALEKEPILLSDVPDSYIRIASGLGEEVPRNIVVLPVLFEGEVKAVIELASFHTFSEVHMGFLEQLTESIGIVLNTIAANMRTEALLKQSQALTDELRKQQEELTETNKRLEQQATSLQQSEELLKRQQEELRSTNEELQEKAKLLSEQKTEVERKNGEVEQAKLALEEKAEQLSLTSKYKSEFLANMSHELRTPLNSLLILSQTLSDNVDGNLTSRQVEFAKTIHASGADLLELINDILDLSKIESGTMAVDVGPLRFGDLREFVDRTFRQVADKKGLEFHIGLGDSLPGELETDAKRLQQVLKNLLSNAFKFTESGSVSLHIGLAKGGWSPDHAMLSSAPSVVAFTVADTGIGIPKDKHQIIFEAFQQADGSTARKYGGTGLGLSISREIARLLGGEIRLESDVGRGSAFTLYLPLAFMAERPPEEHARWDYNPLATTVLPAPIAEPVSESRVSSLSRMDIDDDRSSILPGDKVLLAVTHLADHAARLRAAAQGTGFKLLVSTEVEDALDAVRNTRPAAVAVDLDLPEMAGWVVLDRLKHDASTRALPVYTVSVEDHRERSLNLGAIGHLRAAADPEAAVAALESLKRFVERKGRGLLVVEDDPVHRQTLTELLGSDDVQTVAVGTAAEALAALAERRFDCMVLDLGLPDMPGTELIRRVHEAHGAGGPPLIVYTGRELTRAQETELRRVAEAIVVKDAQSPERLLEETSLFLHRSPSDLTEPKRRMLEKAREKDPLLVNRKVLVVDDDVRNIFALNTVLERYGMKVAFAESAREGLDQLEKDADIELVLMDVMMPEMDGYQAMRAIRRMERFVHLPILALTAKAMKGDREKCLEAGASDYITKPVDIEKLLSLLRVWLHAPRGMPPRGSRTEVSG

[2] = target: AskB (ambruticin sensor kinase B, MXAN_6735), hybrid histidine kinase (Myxococcus xanthus); test: as above
Sequence of AskB (ambruticin sensor kinase B, MXAN_6735), hybrid histidine kinase (Myxococcus xanthus) (main, as listed by the source): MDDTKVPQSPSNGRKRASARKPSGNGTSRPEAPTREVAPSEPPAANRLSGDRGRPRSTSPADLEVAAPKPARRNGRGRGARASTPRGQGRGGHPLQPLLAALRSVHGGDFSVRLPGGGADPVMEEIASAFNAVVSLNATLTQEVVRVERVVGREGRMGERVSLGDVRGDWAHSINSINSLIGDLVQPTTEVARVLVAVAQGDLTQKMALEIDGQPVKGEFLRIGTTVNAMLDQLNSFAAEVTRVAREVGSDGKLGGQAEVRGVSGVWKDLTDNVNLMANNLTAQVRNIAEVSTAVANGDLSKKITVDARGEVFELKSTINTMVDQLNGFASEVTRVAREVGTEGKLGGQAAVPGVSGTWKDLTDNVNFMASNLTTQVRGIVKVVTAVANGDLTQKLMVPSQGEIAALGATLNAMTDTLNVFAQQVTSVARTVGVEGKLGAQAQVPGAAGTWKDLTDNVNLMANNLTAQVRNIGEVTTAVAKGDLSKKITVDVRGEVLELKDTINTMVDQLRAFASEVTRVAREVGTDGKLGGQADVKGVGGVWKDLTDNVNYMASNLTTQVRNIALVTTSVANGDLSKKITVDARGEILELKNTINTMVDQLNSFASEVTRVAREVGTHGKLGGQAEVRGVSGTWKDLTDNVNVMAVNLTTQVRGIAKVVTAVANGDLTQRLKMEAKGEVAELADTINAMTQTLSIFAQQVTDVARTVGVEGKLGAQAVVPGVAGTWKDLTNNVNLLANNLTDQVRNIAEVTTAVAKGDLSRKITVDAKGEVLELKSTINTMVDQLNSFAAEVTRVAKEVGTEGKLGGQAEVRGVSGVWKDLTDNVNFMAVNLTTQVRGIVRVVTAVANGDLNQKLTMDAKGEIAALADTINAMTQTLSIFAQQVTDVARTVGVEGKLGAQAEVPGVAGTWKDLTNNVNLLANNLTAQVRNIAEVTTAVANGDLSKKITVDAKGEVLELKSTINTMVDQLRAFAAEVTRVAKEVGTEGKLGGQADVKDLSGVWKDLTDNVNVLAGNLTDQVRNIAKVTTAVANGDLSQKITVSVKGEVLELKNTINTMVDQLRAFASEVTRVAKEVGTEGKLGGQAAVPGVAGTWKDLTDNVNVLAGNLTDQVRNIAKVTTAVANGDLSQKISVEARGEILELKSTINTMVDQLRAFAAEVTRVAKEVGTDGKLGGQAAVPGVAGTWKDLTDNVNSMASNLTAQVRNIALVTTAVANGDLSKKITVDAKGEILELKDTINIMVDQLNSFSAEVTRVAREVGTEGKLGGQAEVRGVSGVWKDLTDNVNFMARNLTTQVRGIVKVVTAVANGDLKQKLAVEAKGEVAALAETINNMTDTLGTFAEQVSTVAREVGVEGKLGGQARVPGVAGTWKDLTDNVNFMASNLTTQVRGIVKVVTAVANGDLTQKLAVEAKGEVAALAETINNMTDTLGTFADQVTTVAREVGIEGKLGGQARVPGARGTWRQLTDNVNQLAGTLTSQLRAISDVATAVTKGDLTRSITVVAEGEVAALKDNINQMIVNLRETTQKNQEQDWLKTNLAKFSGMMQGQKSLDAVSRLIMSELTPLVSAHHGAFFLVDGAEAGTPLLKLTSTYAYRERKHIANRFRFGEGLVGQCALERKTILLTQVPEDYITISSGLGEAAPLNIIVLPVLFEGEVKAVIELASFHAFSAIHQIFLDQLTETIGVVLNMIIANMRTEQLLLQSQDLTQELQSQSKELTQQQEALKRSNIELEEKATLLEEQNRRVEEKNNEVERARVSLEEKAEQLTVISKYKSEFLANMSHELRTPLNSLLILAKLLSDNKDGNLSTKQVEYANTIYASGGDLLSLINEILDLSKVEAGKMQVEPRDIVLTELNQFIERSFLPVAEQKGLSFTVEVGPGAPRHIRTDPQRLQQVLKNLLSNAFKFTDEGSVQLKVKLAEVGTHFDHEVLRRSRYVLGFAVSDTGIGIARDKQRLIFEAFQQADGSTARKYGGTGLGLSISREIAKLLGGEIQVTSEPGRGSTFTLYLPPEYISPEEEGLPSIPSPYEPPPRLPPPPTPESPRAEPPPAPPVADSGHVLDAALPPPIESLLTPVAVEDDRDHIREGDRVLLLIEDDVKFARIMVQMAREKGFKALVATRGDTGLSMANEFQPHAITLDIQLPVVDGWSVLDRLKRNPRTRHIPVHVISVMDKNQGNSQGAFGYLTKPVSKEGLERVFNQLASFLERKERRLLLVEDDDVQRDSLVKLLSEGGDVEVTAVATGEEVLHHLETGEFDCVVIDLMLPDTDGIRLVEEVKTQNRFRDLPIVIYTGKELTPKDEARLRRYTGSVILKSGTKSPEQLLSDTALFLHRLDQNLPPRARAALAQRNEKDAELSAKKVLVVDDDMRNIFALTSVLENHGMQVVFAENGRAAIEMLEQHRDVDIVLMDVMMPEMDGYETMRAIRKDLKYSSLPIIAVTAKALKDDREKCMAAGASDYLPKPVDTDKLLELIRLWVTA

[3] = target: AskA (ambruticin sensor kinase A, MXAN_0712), hybrid histidine kinase (Myxococcus xanthus); test: SPR; equilibrium analysis on Biacore X100; ligand amine-coupled to a CM5 chip (which partner is not told); analyte in KB1 running buffer, 0.001 to 1000 µM; 25 °C; 1:1 fit; triplicates
[4] = target: AskB (ambruticin sensor kinase B, MXAN_6735), hybrid histidine kinase (Myxococcus xanthus); test: as above
[5] = target: AskA (ambruticin sensor kinase A, MXAN_0712), hybrid histidine kinase (Myxococcus xanthus); test: MST; NT647-labelled C-terminally His6-tagged AskA, AskB or AskC titrated with serial 1:1 dilutions of non-labelled protein; buffer KB1 (500 mM NaCl, 25 mM HEPES, 0.2% Triton X100, pH 7.4); 25 °C; 40% LED power, 40% MST power; triplicates
[6] = target: AskB (ambruticin sensor kinase B, MXAN_6735), hybrid histidine kinase (Myxococcus xanthus); test: as above
[7] = tested on: MrpC (Myxococcus xanthus DK1622); test: EMSA; conditions: EMSA: 25 mM K-acetate, 8 mM MgSO4, 0.1 mM DTT, 15 mM Tris-HCl pH 7.3, 8% glycerol, 250 ng poly-dIdC, 200 fmol DNA, 15 ul, 30 C 30 min. Pull-down (purified): …
[8] = target: T1, AskC (hybrid histidine kinase, MXAN_6734); test: MST and SPR with purified protein (KD […] by MST, […] by SPR; mean given); format: binding
[9] = target: AskC (MXAN_6734), hybrid histidine kinase, C-terminally His6-tagged (Myxococcus xanthus); test: MST + SPR; average of the KD values from MST and from SPR (mean KD of Table 1)
[10] = target: AskC (MXAN_6734), hybrid histidine kinase, C-terminally His6-tagged (Myxococcus xanthus); test: SPR; equilibrium analysis on Biacore X100; ligand amine-coupled to a CM5 chip (which partner is not told); analyte in KB1 running buffer, 0.001 to 1000 µM; 25 °C; 1:1 fit; triplicates
[11] = target: AskC (MXAN_6734), hybrid histidine kinase, C-terminally His6-tagged (Myxococcus xanthus); test: MST; NT647-labelled C-terminally His6-tagged AskA, AskB or AskC titrated with serial 1:1 dilutions of non-labelled protein; buffer KB1 (500 mM NaCl, 25 mM HEPES, 0.2% Triton X100, pH 7.4); 25 °C; 40% LED power, 40% MST power; triplicates

Molecule | mean KD [1] [nM] | mean KD [2] [nM] | Kd [3] [nM] | Kd [4] [nM] | Kd [5] [nM] | Kd [6] [nM] | Kd [7] [nM] | Kd [8] [nM] | mean KD [9] [nM] | Kd [10] [nM] | Kd [11] [nM]
AskC (MXAN_6734), hybrid histidine kinase, C-terminally His6-tagged (enzyme) | 2800 | 700 | 1400 | 400 | 4100 | 900 | – | – | – | – | –
HEX-PmrpC | – | – | – | – | – | – | < 5 | – | – | – | –
CCC1OC(/C(C)=C/C(C)/C=C/C2C(C)C2/C=C/C2OC(CC(=O)O)CC(N(C)C)C2O)CC=C1C (centres unmarked) [ambVS3, ambruticin VS-3] | – | – | – | – | – | – | – | 300000 ± 200000 | – | – | –
AskB (ambruticin sensor kinase B, MXAN_6735), hybrid histidine kinase (enzyme) | 2800 | – | 3000 | – | 2300 | – | – | – | – | – | –
MrpC, transcriptional regulator of development (natural protein) MHGFNRPLGPIGSNVVAPLQTTSSGMMVTANKLVPGQEAIDFKGYFKVESFPHNSTIYRPGDNTDRVYLLKSGRVRLMRIGKNSTRSVVSILRPGDLFGELFRPEGTPIEEMAIAAGEAEVWSIEGRDFRAQLEARPALAVDVVRAYAERVRALRKRVLGLTFKEVPARLADTLLTLVEAHGERCPHGGETDLRGITQQDLADLVGASRSFVSTLINEMKREGVLGNVGRILCVRDQKALRKIAGKEK | 800 | 1200 | 1000 | 300 | 500 | 2100 | – | – | 1500 | 1600 | 1400
FruA, transcriptional regulator of development (natural protein) MATNQAAIRVSILEGPWAAWQGLADGLRGEGVQVSSVTRDVRLFLDSLGTDPPQVAVMDVEGDSEAAVGCSVTEGINLLREARKRRLEVRMLLLSAVSTPEIISQCFDEGASGYLFRAGLGTTAVASAINSLVRGERLFPVQLLRNDFEHPPVTSPTASVLLALTQREREVLAYVAGGADNLKIAAHLQIAERTVKSHVTQLYRKLGAENRTQLALRACHLGVRPPPDL | 1000 | 1200 | 500 | 200 | 1400 | 2100 | – | – | 1400 | 1500 | 1300
